These results are taken from the DeepSol protein solubility set.

The data set is described as follows: soluble on expression in E. coli; label from the status in PepcDB or PDB records.
For the sequence “MSLKLARINLSRDDIHKRLGGGIPYGSIILVEGEESTGKSIIAQRLAYGFLQTAHSVTYTSTQLTTLEFVKQMMSLNYNINKKLLSGTLLYIPVYPLISDNTQKDDFIKKIMETRAFYEKDIVIFDSLSSLIVNDASDIKVNDLMAFFKRIASMNKVIIYTINPKELPESILTLLRSSATMVLKTEIYTFGGNIKNLVKIEKYNLAQGPFQKLMVFRVEPKLGIAVEISSVAEGHHHHHH”, the “soluble on expression in E. coli” value was “soluble”.

In the case of “MSLKLIGLLMLSYPLQAAPTDLSRYLETQLKEDAREALNSYLQQQGWSASEVDYQVWLSPAVTHLPPCQQAIRLQAGGQYRQPWGRRPYLAECTEPAWQLRARVEVTLMLPVWVTAQEIQKGQTIRTGDLVEKSLDISRLQRGFVPSSESLVGSKSNRNLRMGQLIGELDLQKAWAIREGEGVLIRAGLDGFSATTRGKALANGAIGDGIKVRNISSGKEIQAWVIEKGEVETRFEGHHHHHH”, the “soluble on expression in E. coli” value is on record as “not soluble”.

As for “MSLKLTGEESDTLRKIVLEECLPNQQQNQNPSPCAEVKPNAGYVVLKDLNGPLQYLLMPTYRINGTESPLLTDPSTPNFFWLAWQARDFMSKKYGQPVPDRAVSLAINSRTGHTQNHFHIHISCIRPDVREQLDKNLANISSRWLPLPGGLRGHEYLARRVTESELVQRSPFMMLAEEVPEAREHMGSYGLAMVRQSDNSFVLLATQRNLLTLNRASAEEIQDHECEILREGHHHHHH”, the “soluble on expression in E. coli” value is reported as “soluble”. Regarding “MSLKLYKEIINLIDNHQATMVEQLHQFCEINSGTTNLTGLAIMAETLCSAFKPIADTTELITLPPLSVIDMTGNTVMQSCGDVLFISKRPHLKRRILLSGHMDTVYSASNPFQKLSYLDANQINGPGVADMKGGLIVILHALAAFENTRFAEDMGWDVLINSDEEIGSPTSGSLFNKLAHRYQAALVYEPAMTPNGTLAKNRKGSGKLTLVATGRAAHAGRAFDEGRNAICYLAEAITAVHALNGQKNGVTINVGKIAGGEALNVVPDKAVAQLDIRISLPEDEIWVRNELNKIIKQLERPDYSLNVHGTFGRPVKRICAGTERLFHRIQKIGEALGLTIDWKDSGGCCDGNNLAHYGLPVLDTLGVRGGNIHSSDEYILLDSLSERAALSALLLIDLAQGGLEDLIKEGHHHHHH”, the “soluble on expression in E. coli” value is given as “soluble”.

“MSLKMRVYYEDTDAGGVVYHSNYLKFCERARSEIFFNKKVDIFDASKGHFLLAKANCNFLKPAKLGDMIEIKTKILEVKNASVEILQEIYKDEILLFKMELTLAFIKNEKPARMDMQLKKLFEELFEGGSHHHHHH”: the “soluble on expression in E. coli” value was “soluble”.

Consider “MSLKNDVSPLEIKVIDENSEQYGISKETLMENAGRAVYEEIVNLNVDFSKTYLFCGTGNNGGDGFVIARHLANNFATFVVLIGNERKIKTSETQRNFNTVKNMEFFGNLDYANILDDERAVELLKTIEKELENKQNDHILIIDAMLGTGITGILKNPYSTIVDYLNVLKSKYSKKLKMVSVDIQTGNLNADLEVILHKRKFENKNKNFVVKDIGIPKYIENMVGKGDFYLLNERKQNSHKGQNGNVLVIGGSKEYHGAPVFSALAASKFADIVTVASVSNVMNTVSNYPELMPYELTGDYIVQNHVDELLELSKNYDCVVLGSGISVNSDTKEFVNSYLNETNGKVVIDADAIKLIDYSNFKFKNNFIFTPHKKEFEYIENYIESSGFKSTVVLKGSLDIIFNSNNIKMNITGNQGMTVGGTGDILCGIIGAIYACNDAFPSACCGTYINGYCGDLLEKEYGYYYNSTDIIKILPKALKELLYEGHHHHHH”, for which the “soluble on expression in E. coli” value is reported as “soluble”. For “MSLKNEKQDITLWIAPNNVQEAFWSEVVGEWNKQPDKKKVVFSTIPAAGSSEEAIMNAIASDRAPDISENIFTGFGSQLADLGQVVDLSTLDGYENLISTRQMTDIMDNWRYNGKNYILPIYMNPVLFWWRGDLLKEQGFSEVPKTYDEVYALSEKYTIPDKRYAIQATSGRNWWDRWFDFIALYYAQSDGKPYIANQQASYDNQAGRDVLDFMHTLFSKKWTLYDFGQDDPLVTGKVLGAVRGPWDISRYQQQYPEILKHIKMGPMLVKEQQDKPHTFADGKGLVLFSHSKVKPEAWEFIQWVFSQPKFDKRWMELTGMPPARADLLTNPFFAEYYQEHPYAAAYAEYVNVAIPPVSSGETVEIQRSMTQMIEKTAFNTSTPDEALQQSIKEVNAILKEGHHHHHH”, the “soluble on expression in E. coli” value is recorded as “soluble”. With “MSLKNTLILGIESSCDETAASVVKNGNEIISSVVASQIESHKRFGGVVPEIASRHHVEQITLVIEEALKQANVTMDDLDGVAVTEGPGLVGALLIGVNAAKTLAFMHNLPLVGVHHIAGHIYANRFETEFKFPLLSLVVSGGHTELVLMKADNEFEIIGETRDDAAGEAYDKVARTLGLAYPGGVQIDKLAKDGEDTFHFPRAMMDEGSFDFSFSGLKSSFINTLHNLRQRGEEPNPNDMAASFQASVVDVLVSKTIRAAKQYDVKQLLLAGGVAANQGLRERLIQEVKLELPETELIIPPLALCGDNAAMIAAAGTVSFLQGKRSGFDMNANPGLLLEDIEGHHHHHH” the entry was “soluble”. On to “MSLKPRACVVVYPGSNCDRDAYHALEINGFEPSYVGLDDKLDDYELIILPGGFSYGDYLRPGAVAAREKIAFEIAKAAERGKLIMGICNGFQILIEMGLLKGALLQNSSGKFICKWVDLIVENNDTPFTNAFEKGEKIRIPIAHGFGRYVKIDDVNVVLRYVKDVNGSDERIAGVLNESGNVFGLMPHPERAVEELIGGEDGKKVFQSILNYLKREGGSHHHHHH”, for which the “soluble on expression in E. coli” value is listed as “soluble”. With “MSLKPSDAEEARTEAFLVKLREFLDTVDGSVIERAAQIPDEYVKGLAELGCFGLKIPSEYGGLNMSQVAYNRVLMMVTTVHSSLGALLSAHQSIGVPEPLKLAGTAEQKRRFLPRCAAGAISAFLLTEPDVGSDPARMASTATPIDDGQAYELEGVKLWTTNGVVADLLVVMARVPRSEGHRGGISAFVVEADSPGITVERRNKFMGLRGIENGVTRLHRVRVPKDNLIGREGDGLKIALTTLNAGRLSLPAIATGVAKQALKIAREWSVERVQWGKPVGQHEAVASKISFIAATNYALDAVVELSSQMADEGRNDIRIEAALAKLWSSEMACLVGDELLQIRGGRGYETAESLAARGERAVPVEQMVRDLRINRIFEGSSEIMRLLIAREAVDAHLTAAGDLANPKADLRQKAAAAAGASGFYAKWLPKLVFGEGQLPTTYREFGALATHLRFVERSSRKLARNTFYGMARWQASLEKKQGFLGRIVDIGAELFAISAACVRAEAQRTADPVEGEQAYELAEAFCQQATLRVEALFDALWSNTDSIDVRLANDVLEGRYTWLEQGEGHHHHHH” the entry was “not soluble”; with “MSLKPVMIIQFSASEGPGHFGDFLAGEHIPFQVLRMDRSDPLPAEIRDCSGLAMMGGPMSANDDLPWMPTLLALIRDAVAQRVPVIGHCLGGQLLAKAMGGEVTDSPHAEIGWVRAWPQHVPQALEWLGTWDELELFEWHYQTFSIPPGAVHILRSEHCANQAYVLDDLHIGFQCHIEMQAHMVREWCSISPEELKGGAEADEGHHHHHH”, “not soluble”; with “MSLKQERQEKIEVLKEFKDDGATKFSSYYFDLKKNQILSSGSLTTSWRVIDFSEVLSYQVNRNGHLEQKHHGIARAVTGGIMAGGVGAIVGTTTGENTDYIDHLGLVINLSDGTNFEVKFLKTKTKTNSFTVKTAEGELRSLISIVQSGMNKAQEKAEQEQTKANTIKIESNADPAEEIRKFKKMADEGIISNEEFEAKKKQLLNLQEGHHHHHH”, “soluble”. Turning to “MSLKRAEPQSLQVSQNELQAMAYSDPLTGLGNRYRLRDKIRMLASERSSDPAPFTVGIANIDGFKPINDLFGVQAGDEILCQVAHRLKACIPDGAIVTRHDGDEFAFVLPLIFERIGAERIGNMIKDVLSAPYDLGDRNVRLSSSFGFAIYPFAGDEYEDLLKSAETALYRSKRRGRGQITVYSREIAQEMKRATQLEQALRNAIITDAIDVHFQPIVRLEEAKVIGFEALARWNDPDLGFVSPAVFVPLAEERGFIDALSEALLRKAAEAALFWPRELFLSFNLSSAQLMDPSTSDNILSILSRVGLDPHRLELEITETAVMTSADTAQRIISELQSAGVRISLDDFGTGQSSLGRLRDFTFDKVKIDRAFVSRISSDRPSEHIIKAIVAMCEGLDLEVVAEGIEERVEEEKLRALGCAMGQGYFYGRPVDAAATQRYLHENYREILSDISEGHHHHHH”, the “soluble on expression in E. coli” value is “soluble”.

As to “MSLKREEICRLLADKVNKLKNKENSLSELLPDVRLLYGETPFARTPVMYEPGIIILFSGHKIGYINERVFRYDANEYLLLTVPLPFECETYATSEVPLAGLRLNVDILQLQELLMDEGHHHHHH”, the “soluble on expression in E. coli” value is listed as “not soluble”.
